The results in this text go back to patent US20240117038A1 (Ablynx, published 2024).

Sequences and labels used below:
B1: A041600085 (VHH)
chain: DVQLVESGGGLVQPGGSLRLSCAASGSIFSSTAMAWYRQAPGKRRDLVAAISTVGVTKYADSVKGRFTISRDNSKNTVYLQMNSLRPEDTAVYYCTSDPRRGWDTRYWGQGTLVTVSSGGGGSGGGSEVQLVESGGGVVQPGGSLRLSCAASGFTFRSFGMSWVRQAPGKGPEWVSSISGSGSDTLYADSVKGRFTISRDNSKNTLYLQMNSLRPEDTALYYCTIGGSLSRSSQGTLVTVSSGGGGSGGGSEVQLVESGGGLVQPGGSLRLSCAASGSIFSSTAMAWYRQAPGKRRDLVAAISTVGVTKYADSVKGRFTISRDNSKNTVYLQMNSLRPEDTAVYYCTSDPRRGWDTRYWGQGTLVTVSSA
notes: also called 307-9GS-ALB23002-9GS-307 (D1E)-A
B2: A041600041 (VHH)
chain: DVQLVESGGGSVQPGGSLRLSCAASGSIFSSTAMAWYRQAPGKQRDLVAVISTVGITKYADSVKGRFTISRDNAKNTVYLQMNSLRPEDTALYYCTSDARRGWDTRYWGQGTLVTVSSGGGGSGGGSEVQLVESGGGSVQPGGSLRLSCAASGSIFSSTAMAWYRQAPGKRRDLVAAINTVGVTKYADSVKGRFTISRDNAKNTVYLQMNSLRPEDTALYYCTSDPRRGWDTRYWGQGTLVTVSSGGGGSGGGSEVQLVESGGGVVQPGGSLRLSCAASGFTFRSFGMSWVRQAPGKGPEWVSSISGSGSDTLYADSVKGRFTISRDNSKNTLYLQMNSLRPEDTALYYCTIGGSLSRSSQGTLVTVSSA
notes: Trivalent ISVD construct (two anti-CX3CR1 ISVDs, one anti-albumin ISVD), C-terminal alanine included in the entry; also called 54A12_SO (E1D)-9GS-66B02_SO-9GS-ALB23002-A
B3: A041600025 (VHH)
chain: DVQLVESGGGSVQPGGSLRLSCAASGSIFSSTAMAWYRQAPGKQRDLVAVISTVGITKYADSVKGRFTISRDNAKNTVYLQMNSLRPEDTALYYCTSDARRGWDTRYWGQGTLVTVSSGGGGSGGGSEVQLVESGGGVVQPGGSLRLSCAASGFTFRSFGMSWVRQAPGKGPEWVSSISGSGSDTLYADSVKGRFTISRDNSKNTLYLQMNSLRPEDTALYYCTIGGSLSRSSQGTLVTVSSGGGGSGGGSEVQLVESGGGSVQPGGSLRLSCAASGSIFSSTAMAWYRQAPGKQRDLVAVISTVGITKYADSVKGRFTISRDNAKNTVYLQMNSLRPEDTALYYCTSDARRGWDTRYWGQGTLVTVSSA
notes: Trivalent ISVD construct (two anti-CX3CR1 ISVDs, one anti-albumin ISVD), C-terminal alanine included in the entry; also called 54A12_SO (E1D)-9GS-ALB23002-9GS-54A12_SO-A
B4: A041600034 (VHH)
chain: B3 chain with Q295R, V301A, S303N, I307V, A350P
notes: Trivalent ISVD construct; also called 54A12_SO (E1D)-9GS-ALB23002-9GS-66B02_SO-A
B5: A041600035 (VHH)
chain: B2 chain with R171Q, A177V, N179S, V183I, P226A
notes: Trivalent ISVD construct (two anti-CX3CR1 ISVDs, one anti-albumin ISVD), C-terminal alanine included in the entry; also called 54A12_SO (E1D)-9GS-54A12_SO-9GS-ALB23002-A

Where a chain is given by its changes, count along the chain named. Numbers in names are those of the source.

For one assay, the target named is T1, human CX3CR1 V249I/T280M (human, UniProt P49238 1-355).
T1 construct: Transiently transfected in HEK293T cells (pcDNA3.1); also called huCX3CR1 variant V249I and T280M
T1 chain: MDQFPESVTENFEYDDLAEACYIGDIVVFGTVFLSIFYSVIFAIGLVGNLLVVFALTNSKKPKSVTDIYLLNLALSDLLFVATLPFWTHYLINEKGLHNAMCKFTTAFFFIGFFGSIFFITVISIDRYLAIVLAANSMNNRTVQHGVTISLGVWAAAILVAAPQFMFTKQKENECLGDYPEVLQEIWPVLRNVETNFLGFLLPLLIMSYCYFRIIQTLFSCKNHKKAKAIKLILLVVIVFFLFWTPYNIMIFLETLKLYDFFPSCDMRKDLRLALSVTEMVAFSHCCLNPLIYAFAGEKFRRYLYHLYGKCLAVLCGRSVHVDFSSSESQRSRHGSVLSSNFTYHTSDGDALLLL
The assay is described as follows: flow cytometry on HEK293T cells transiently transfected with human CX3CR1 V249I + T280M; detection with anti-VHH mouse antibody and goat anti-mouse Fc APC, as in Example 5.1. On the procedure: Plates were then washed 3 times and cells were incubated with an anti-VHH mouse antibody (3300-fold diluted in assay buffer) for 30 minutes at 4′° C. […] Plates were finally washed 3 times and cells were resuspended in PI (Miltenyi Biotec, Cat. No. 130-093-233, 1000-fold diluted in assay buffer). Cell suspensions were analyzed with iQue Screener PLUS (Intellicyt). EC50s were estimated by dose response modelling. Curves were fit using 4 parameter logistic regression in GraphPad (GraphPad Software Inc.). A purified anti-human CX3CR1 antibody [K0124E1] (BioLegend, Cat. No. 355701/355702) was used as positive control to detect CX3CR1 expression on the cell surface.
(§1) Two important SNPs are described in huCX3CR1, i.e. V2491 (Rs3732379) and T280M (Rs3732378), which might influence receptor activity and binding by the ISVD. […] Different combinations of these SNPs were introduced in human CX3CR1, and binding by 5 selected multivalent ISVD constructs was assessed with flow cytometry after transient transfection of the huCX3CR1 variants in HEK293T cells.
In short, the CX3CR1 constructs were cloned into pcDNA3.1 (ThermoFisher Scientific, Cat. No. V79020) and plasmid DNA was prepared from Escherichia coli TOP10 cells. […]
Background: Flow cytometry measures light scatter and fluorescence of single cells or particles in a stream.
For B1, the binding result was “binds”.

As for B2, the binding result was “binds”.

The next assay deals with T2, human CCR5 (human, UniProt P51681 1-352).
T2 construct: whole, on cells; also called huCCR5
T2 sequence (P51681 whole entry): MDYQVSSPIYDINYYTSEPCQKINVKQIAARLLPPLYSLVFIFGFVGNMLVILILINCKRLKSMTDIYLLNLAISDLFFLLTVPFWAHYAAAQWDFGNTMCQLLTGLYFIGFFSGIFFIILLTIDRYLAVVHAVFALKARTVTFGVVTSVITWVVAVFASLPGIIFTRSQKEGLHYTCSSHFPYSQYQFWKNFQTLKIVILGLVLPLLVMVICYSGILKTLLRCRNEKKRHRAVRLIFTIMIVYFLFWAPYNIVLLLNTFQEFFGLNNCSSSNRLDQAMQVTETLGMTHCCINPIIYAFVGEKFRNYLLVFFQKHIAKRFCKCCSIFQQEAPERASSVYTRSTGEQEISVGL
The assay is described as follows: flow cytometry on CHO-K1 cells expressing human CCR5. On the procedure: (§2) CHO cells overexpressing human or cynomolgus CX3CR1 were generated using techniques known in the art. Cells were harvested and resuspended in assay buffer (PBS, 2% FBS, 0.05% NaN3) and seeded separately in 384-well Bio-One V-bottom plates (Greiner, Cat. No. 781280), with a total of 2E04 cells seeded per well. After washing, serial dilutions of multivalent ISVD construct (starting from 250 nM, 3-fold dilution, 11 points, diluted in assay buffer), were added and incubated for 4 hours at 4° C. Binding was performed in the presence of 30 uM HSA (Sigma-Aldrich, Cat. No. A8763). Plates were then washed 3 times and cells were incubated with an anti-VHH mouse antibody (3300-fold diluted in assay buffer) for 30 minutes at 4′° C. […] Plates were finally washed 3 times and cells were resuspended in PI (Miltenyi Biotec, Cat. No. 130-093-233, 1000-fold diluted in assay buffer). Cell suspensions were analyzed with iQue Screener PLUS (Intellicyt). EC50s were estimated by dose response modelling. Curves were fit using 4 parameter logistic regression in GraphPad (GraphPad Software Inc.). A purified anti-human CX3CR1 antibody [K0124E1] (BioLegend, Cat. No. 355701/355702) was used as positive control to detect CX3CR1 expression on the cell surface.
Specificity of the 5 selected multivalent ISVD constructs for the huCX3CR1 receptor was evaluated by performing a FACS binding experiment on CHO-K1 cells expressing human CCR2 or human CCR5. CHO cells overexpressing huCCR2 or huCCR5 were generated using techniques known in the art. Binding of the multivalent ISVD constructs to huCR2 or huCCR5 expressed on the cell surfaces was examined by flow cytometry as described in example 5.1.
With B3, the binding result is reported as “no binding”.

As to B4, the binding result is recorded as “no binding”.

B1: the binding result is listed as “no binding”.

For B5, the binding result is listed as “no binding”.

B2: the binding result is “no binding”.

In another assay the target is T3, human CX3CR1 V249I (human, UniProt P49238 1-355).
T3 construct: Transiently transfected in HEK293T cells (pcDNA3.1); also called huCX3CR1 variant V249I (Rs3732379); printed V2491 in the text
T3 sequence: T1 chain with M280T
The assay can be described thus: flow cytometry on transiently transfected HEK293T cells, human CX3CR1 V249I. How it is done:
as §2, with “After” for “CHO cells overexpressing human or cynomolgus CX3CR1 were generated using techniques known in the art. Cells were harvested and resuspended in assay buffer (PBS, 2% FBS, 0.05% NaN3) and seeded separately in 384-well Bio-One V-bottom plates (Greiner, Cat. No. 781280), with a total of 2E04 cells seeded per well. After”
as §1
In short, the CX3CR1 constructs were cloned into pcDNA3.1 (ThermoFisher Scientific, Cat. No. V79020) and plasmid DNA was prepared from Escherichia coli TOP10 cells. HEK293T cells were seeded at a concentration of 1.5E06 cells per T75 flask and incubated overnight at 37° C. in DMEM medium (Gibco, Cat. No. 31966) supplemented with 10% FBS (Sigma. Cat. No. F7524). The medium was then replaced by Opti-MEM medium (Gibco, Cat. No. 31985). A mixture of 9 μg plasmid DNA, 27 μL Fugene 6 (Promega, Cat. No. E2691) in a final volume of 1 mL Opti-MEM was incubated for 15 minutes at room temperature and then added to the cells. After 3 hours incubation at 37° C., 10 mL of DMEM supplemented with 20% FBS was added, and incubation continued.
As to B4, the EC50 worked out at 0.045 nM.

For the molecule B1, the EC50 stood at 0.057 nM.

B5: the EC50 is 0.25 nM.

In the case of B2, the EC50 stood at 0.089 nM.

As a reminder, the EC50 is the midpoint of the concentration-response curve.
